From patent publication US20220088195A1, “Prevention or mitigation of T-cell bispecific antibody-related adverse effects” (Hoffmann-La Roche Inc., priority 2020, published 2022)

Test system: MKN45 NLR target cells
Assay: Reversibility killing assay with two and three stimulations (OFF/ON, ON/OFF/ON), MKN45 NLR + CEA-TCB, Incucyte
Type: cell-based, human
Conditions: 1 nM CEA-TCB, no dasatinib
Protocol: FIG. 16. In vitro killing assay set-up and timelines. PBMCs were stimulated on MKN45 NLR (E:T=10:1) target cells with 1 nM CEA-TCB for 96 hours. Activated PBMCs were washed and restimulated on new MKN45 NLR target cells (E:T=10:1) with 1 nM CEA-TCB in the presence of 25 nM dasatinib for 72 hours. Activated PBMCs were washed to remove dasatinib and restimulated on new MKN45 NLR target cells (E:T=10:1) with 1 nM CEA-TCB (“ON/OFF/ON”, see upper row of table), or vice versa (“OFF/ON/OFF”, see lower row of table). Killing was followed by Incucyte®.
FIG. 17. Real time killing of MKN45 NLR target cells by CEA-TCB in the presence of 25 nM dasatinib (0-72 h) upon first stimulation and in the absence of 25 nM dasatinib (96-170 h) upon restimulation, in the assay of FIG. 16 (“OFF/ON”).
FIG. 19. Real time killing of MKN45 NLR target cells by CEA-TCB in the assay of FIG. 16 (“ON/OFF/ON”).
FIG. 21. CEA-TCB mediated target cell killing. (A) PBMCs were stimulated on MKN45 NLR (E:T=10:1) target cells with 1 nM CEA-TCB for 96 hours in the presence and absence of dasatinib. (B) Activated PBMCs were washed to remove dasatinib and restimulated on new MKN45 NLR target cells (E:T=10:1) with 1 nM CEA-TCB. Killing was followed by Incucyte®.
We then verified if dasatinib's effect is reversible upon its removal. Therefore we set-up a killing assay with two and three stimulations in the presence and absence of dasatinib and followed the killing kinetics using an Incucyte® system (FIG. 16). After each stimulation, effector cells were washed and re-stimulated on fresh MKN45 NLR target cells with 1 nM CEA TCB in the presence and absence of dasatinib allowing to mimic OFF/ON switch and ON/OFF/ON switch.
Lastly, we evaluated if the effect of dasatinib was reversible on activated T cells. Consequently, we supplemented the media with 25 nM dasatinib upon the second stimulation with 1 nM CEA-TCB to prevent killing from activated T cells and then removed the dasatinib upon third stimulation with 1 nM CEA-TCB to verify if killing would be restored. […] We concluded that the effect of dasatinib in the prevention of T cell activation and cytotoxicity is reversible.
For T-cell engaging antibodies, cytokine release peaks are higher upon the first treatment than after subsequent treatments. We were curious to see if low doses of dasatinib could prevent cytokine release while minimally affecting TCB-efficacy upon first stimulation. In killing assays as described in FIG. 16, the cytokine levels upon first treatment with 1 nM CEA-TCB in the presence of 6.25 nM and 12.5 nM dasatinib and upon second treatment with 1 nM CEA-TCB in the absence of dasatinib were measured in the supernatants. […] Its removal upon second stimulation may also balance the cytokine release and restore TCB-induced cytotoxicity due to the reversibility properties of dasatinib.

B1: CEA-TCB: T cell bispecific antibody binding CEA and CD3 (SEQ ID NOs 28-47) (antibody, chains of the INN, looked up, V domains shown)
VH: QVQLVQSGAEVKKPGASVKVSCKASGYTFTEFGMNWVRQAPGQGLEWMGWINTKTGEATYVEEFKGRVTFTTDTSTSTAYMELRSLRSDDTAVYYCARWDFAYYVEAMDYWGQGTTVTVSS
VL: DIQMTQSPSSLSASVGDRVTITCKASAAVGTYVAWYQQKPGKAPKLLIYSASYRKRGVPSRFSGSGSGTDFTLTISSLQPEDFATYYCHQYYTYPLFTFGQGTKLEIK
VH2: QVQLVQSGAEVKKPGASVKVSCKASGYTFTEFGMNWVRQAPGQGLEWMGWINTKTGEATYVEEFKGRVTFTTDTSTSTAYMELRSLRSDDTAVYYCARWDFAYYVEAMDYWGQGTTVTVSS
VL2: QAVVTQEPSLTVSPGGTVTLTCGSSTGAVTTSNYANWVQEKPGQAFRGLIGGTNKRAPGTPARFSGSLLGGKAALTLSGAQPEDEAEYYCALWYSNLWVFGGGTKLTVL
killing of MKN45 cells after first stimulation: triggered the killing
